The values that follow are results of earlier work, collected in article PMC2846628.

The target in this series is Cdc25 phosphopeptide (Homo sapiens). In words: NMR titration.

As to Pin1 1-163 (from UniProt Q13526), the dissociation constant (Kd) is 8 µM.

As usually defined, the Kd is the free concentration of one partner at which half of the binding sites on the other are occupied at equilibrium, for simple one-to-one binding.
